Experimental data taken from patent publication KR20130034043A, “폴리펩타이드” (애피바디 에이비, priority 2010, dated 2013).
Where no end group is shown, it is not given here.

Experiments:
[1] = Small animal PET, whole-body distribution of 68Ga-labelled polypeptide (Example 11); assay type: in vivo, 랫트; settings: after i.v. injection, […] scan
인간 혈청 함유 IgG = assay type: binding
[2] = Melting temperature (Tm) by circular dichroism, variable temperature (Example 3); assay type: physicochemical; settings: higher Tm with N-terminal serine
인간 혈청 알부민(HSA) [3] = target: T1, 인간 혈청 알부민(HSA) (Homo sapiens, UniProt P02768); test: Biacore (SPR) affinity for immobilised HSA (Example 2); assay type: binding; settings: as in Example 2; data not shown
T1 construct: purchased Novozymes

인간 혈청 알부민(HSA) [4] = target: T1, 인간 혈청 알부민(HSA); test: Biacore affinity for albumin of various species: human (Example 7); assay type: binding
HSA = target: T2, HSA (Homo sapiens, UniProt P02768); test: Stability to heat and low pH, biosensor analysis of HSA binding (Example 10); assay type: physicochemical, 인간; settings: 90℃, 10 min, pH 4.0
T2 construct: purchased Novozymes

MSA = target: T3, MSA (Mus musculus, UniProt P07724); test: Biacore affinity for albumin of various species: mouse (Example 7); assay type: binding, 마우스; settings: range stated over all five species
T3 construct: purchased Sigma-Aldrich A3559

RSA = target: T4, RSA (Rattus norvegicus, UniProt P02770); test: Biacore affinity for albumin of various species: rat (Example 7); assay type: binding, 랫트; settings: range stated over all five species
T4 construct: purchased Sigma-Aldrich A6272

[5] = Stability to heat, CD analysis of structural reversibility (Example 10); assay type: physicochemical
DSA = target: T5, DSA (Canis lupus familiaris, UniProt P49822); test: Biacore affinity for albumin of various species: dog (Example 7); assay type: binding, 개; settings: range stated over all five species
T5 construct: purchased MP Biomedicals 55925

CSA = target: T6, CSA (Macaca fascicularis, UniProt A2V9Z4); test: Biacore affinity for albumin of various species: cynomolgus (Example 7); assay type: binding, 필리핀 원숭이; settings: range stated over all five species
T6 construct: CSA(cynomolgus 혈청으로부터 얻어 in-house 정제시킴); from tissue; host or cells: cynomolgus serum
T6 sequence (A2V9Z4 25-608): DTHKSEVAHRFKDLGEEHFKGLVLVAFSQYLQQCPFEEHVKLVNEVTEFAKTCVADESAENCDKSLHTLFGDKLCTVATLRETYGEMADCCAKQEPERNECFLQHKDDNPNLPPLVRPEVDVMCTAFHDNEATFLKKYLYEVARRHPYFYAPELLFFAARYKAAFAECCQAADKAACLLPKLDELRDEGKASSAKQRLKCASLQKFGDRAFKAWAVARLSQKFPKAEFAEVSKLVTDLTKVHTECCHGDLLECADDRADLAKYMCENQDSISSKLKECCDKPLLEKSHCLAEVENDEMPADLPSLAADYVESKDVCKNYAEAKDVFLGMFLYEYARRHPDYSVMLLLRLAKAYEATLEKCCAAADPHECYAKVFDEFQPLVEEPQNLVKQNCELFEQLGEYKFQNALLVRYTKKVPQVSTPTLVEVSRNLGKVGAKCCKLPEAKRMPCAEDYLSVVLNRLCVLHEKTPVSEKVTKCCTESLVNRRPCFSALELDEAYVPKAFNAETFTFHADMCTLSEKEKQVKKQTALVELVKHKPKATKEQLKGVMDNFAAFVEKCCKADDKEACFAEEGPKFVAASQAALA

T3 sequence (P07724 25-608): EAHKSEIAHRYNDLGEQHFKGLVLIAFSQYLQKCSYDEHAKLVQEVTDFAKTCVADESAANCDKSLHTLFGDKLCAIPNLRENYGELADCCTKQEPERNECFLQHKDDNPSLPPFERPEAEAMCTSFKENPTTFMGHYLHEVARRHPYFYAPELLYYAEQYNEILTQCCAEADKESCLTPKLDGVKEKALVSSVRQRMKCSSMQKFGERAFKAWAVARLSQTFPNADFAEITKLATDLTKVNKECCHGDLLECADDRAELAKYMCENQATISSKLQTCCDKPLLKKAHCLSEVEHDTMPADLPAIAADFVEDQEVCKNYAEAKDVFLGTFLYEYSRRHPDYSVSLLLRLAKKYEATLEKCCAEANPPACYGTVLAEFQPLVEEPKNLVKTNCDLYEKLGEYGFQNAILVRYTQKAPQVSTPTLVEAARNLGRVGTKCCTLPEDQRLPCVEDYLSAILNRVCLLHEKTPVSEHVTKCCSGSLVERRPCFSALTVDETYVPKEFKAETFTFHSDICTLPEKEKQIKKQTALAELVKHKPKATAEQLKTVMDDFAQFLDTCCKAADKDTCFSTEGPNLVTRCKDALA
T5 sequence (P49822 25-608): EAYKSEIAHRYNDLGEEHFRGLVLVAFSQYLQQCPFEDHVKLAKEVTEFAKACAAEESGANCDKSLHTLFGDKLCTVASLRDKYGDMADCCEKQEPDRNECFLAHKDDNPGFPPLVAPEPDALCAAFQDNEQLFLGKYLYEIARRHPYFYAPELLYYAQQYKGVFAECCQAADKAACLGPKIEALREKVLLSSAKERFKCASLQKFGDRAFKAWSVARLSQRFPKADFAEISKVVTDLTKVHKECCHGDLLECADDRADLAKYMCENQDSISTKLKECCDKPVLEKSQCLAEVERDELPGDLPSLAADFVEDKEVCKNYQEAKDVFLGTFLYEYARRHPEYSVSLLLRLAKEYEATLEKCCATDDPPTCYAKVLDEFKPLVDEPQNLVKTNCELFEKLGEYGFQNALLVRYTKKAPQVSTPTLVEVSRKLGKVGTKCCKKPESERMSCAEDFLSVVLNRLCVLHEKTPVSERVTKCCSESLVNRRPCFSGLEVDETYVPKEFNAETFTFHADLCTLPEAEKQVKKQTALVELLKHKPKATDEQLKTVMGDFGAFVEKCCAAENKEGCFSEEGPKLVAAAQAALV
T4 sequence (P02770 25-608): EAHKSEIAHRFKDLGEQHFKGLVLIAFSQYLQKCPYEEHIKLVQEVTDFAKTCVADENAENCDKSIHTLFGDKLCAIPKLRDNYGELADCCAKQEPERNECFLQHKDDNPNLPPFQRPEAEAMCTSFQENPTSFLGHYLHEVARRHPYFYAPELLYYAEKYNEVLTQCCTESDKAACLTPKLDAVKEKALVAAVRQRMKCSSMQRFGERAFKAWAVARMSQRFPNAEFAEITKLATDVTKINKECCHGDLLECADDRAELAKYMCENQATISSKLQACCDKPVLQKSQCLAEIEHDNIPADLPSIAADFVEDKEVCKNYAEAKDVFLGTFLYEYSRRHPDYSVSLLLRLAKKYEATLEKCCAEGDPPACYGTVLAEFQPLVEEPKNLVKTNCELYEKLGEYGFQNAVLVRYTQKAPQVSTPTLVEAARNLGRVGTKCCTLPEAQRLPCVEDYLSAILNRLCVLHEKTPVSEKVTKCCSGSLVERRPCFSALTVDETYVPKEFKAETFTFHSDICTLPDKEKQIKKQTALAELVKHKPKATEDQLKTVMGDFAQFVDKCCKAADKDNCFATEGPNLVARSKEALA

Question: Which Plasma clearance [1] does the source give for “68Ga-PEP08296: 68Ga-labelled PEP08296 (DOTA-conjugated PEP08185, SEQ ID NO:148) (GSLAEAKEAANAELDCYGVSDFYKRLIDKAKTVEGVEALKDAILAALPG; also: DOTA chelator conjugated, place not given here, 68Ga label)” here?
Answer: 매우 느린

Question: Which results are given for CC[C@H](C)[C@H](NC(=O)[C@H](C)NC(=O)[C@H](CC(=O)O)NC(=O)[C@H](CCCCN)NC(=O)[C@H](CC(C)C)NC(=O)[C@H](C)NC(=O)[C@H](CCC(=O)O)NC(=O)[C@@H](NC(=O)CNC(=O)[C@H](CCC(=O)O)NC(=O)[C@@H](NC(=O)[C@@H](NC(=O)[C@H](CCCCN)NC(=O)[C@H](C)NC(=O)[C@H](CCCCN)NC(=O)[C@H](CC(=O)O)NC(=O)[C@@H](NC(=O)[C@H](CC(C)C)NC(=O)[C@H](CCCNC(=N)N)NC(=O)[C@H](CCCCN)NC(=O)[C@H](Cc1ccc(O)cc1)NC(=O)[C@H](Cc1ccccc1)NC(=O)[C@H](CC(=O)O)NC(=O)[C@H](CO)NC(=O)[C@@H](NC(=O)CNC(=O)[C@H](Cc1ccc(O)cc1)NC(=O)[C@H](CSC1CC(=O)N(CCNC(=O)CN2CCN(CC(=O)O)CCN(CC(=O)O)CCN(CC(=O)O)CC2)C1=O)NC(=O)[C@H](CC(=O)O)NC(=O)[C@H](CC(C)C)NC(=O)[C@H](CCC(=O)O)NC(=O)[C@H](C)NC(=O)[C@H](CC(N)=O)NC(=O)[C@H](C)NC(=O)[C@H](C)NC(=O)[C@H](CCC(=O)O)NC(=O)[C@H](CCCCN)NC(=O)[C@H](C)NC(=O)[C@H](CO)NC(=O)[C@H](C)NC(=O)[C@H](CC(C)C)NC(=O)CN)C(C)C)[C@@H](C)CC)[C@@H](C)O)C(C)C)C(C)C)C(=O)N[C@@H](CC(C)C)C(=O)N[C@@H](C)C(=O)N[C@@H](C)C(=O)N[C@@H](CC(C)C)C(=O)N1CCC[C@H]1C(=O)O (some centres unmarked) [PEP07968]?
Answer: Immunogenicity classification (CD3+ CD4+ T 세포): 비-면역원성; Number of responding individuals compared with buffer only (CD3+ CD4+ T 세포): 1 명; Reactivity with human serum IgG (mean OD and proportion of sera binding) (인간 혈청 함유 IgG): 가장 낮은 반응도

Question: With “PEP07554: albumin binding polypeptide variant, SEQ ID NO:156 (GSS + PP007 sequence) (GSSLASAKEAANAELDSYGVSDFYKRLIDKAKTVEGVEALKDAILAALP; Engineered albumin-binding polypeptide)” as the compound, how does the “Tm difference, N-terminal serine vs glycine at the same position (PEP07554 vs PEP07912)” value [2] read?
Answer: 5 °C

Question: With “PEP07975: maleimide-DOTA-conjugated PEP07834 (SEQ ID NO:160), C-terminal amide, chemically synthesised (ALASAKEAANAELDCYGVSDFYKRLIDKAKTVEGVEALKDAILAALP-NH2; also: maleimide-DOTA conjugate, place not given here)” as the compound, how does the “Binding activity to HSA” value (인간 혈청 알부민(HSA) [3]) read?
Answer: 확인하였으며

Question: Which “Rank order of relative affinity for albumins of the species” value (인간 혈청 알부민(HSA) [4]; HSA, CSA, RSA, MSA, DSA) does the source give for “PEP08296: DOTA-conjugated PEP08185 (SEQ ID NO:148) (GSLAEAKEAANAELDCYGVSDFYKRLIDKAKTVEGVEALKDAILAALPG; also: DOTA conjugate, place not given here)” here?
Answer: RSA ≥ HSA/CSA > MSA/DSA

Question: And the “Affinity (KD) compared with PEP06923” value (인간 혈청 알부민(HSA) [4]; albumins of the tested species, same order of magnitude)?
Answer: 같거나 약간 낮다

Question: And the “KD for HSA” value (인간 혈청 알부민(HSA) [4]; range stated over all five species)?
Answer: 높은 친화성(KD가 피코몰 미만으로부터 나노몰 미만까지의 범위에 속함)

Question: And the “HSA binding capacity after heat treatment” value (HSA)?
Answer: 약간 떨어뜨렸다

Question: What about the “KD for MSA” value (MSA) of the same compound?
Answer: 높은 친화성(KD가 피코몰 미만으로부터 나노몰 미만까지의 범위에 속함)

Question: And the “KD for RSA” value (RSA)?
Answer: 높은 친화성(KD가 피코몰 미만으로부터 나노몰 미만까지의 범위에 속함)

Question: And the “Alpha helix content after heat treatment, pH 4.0” value ([5]; 90℃, 12 min, PBS pH 4.0)?
Answer: 약간 감소

Question: What about the “Alpha helix content after heat treatment, pH 7.2” value ([5]; 90℃, 12 min, PBS pH 7.2) of the same compound?
Answer: 어떠한 변화도 없었다

Question: And the “Effect of short heating to 90℃ on structure (CD spectra before/after)” value ([5]; temperature gradient 20-90℃, pH 4 or pH 7.2 buffer)?
Answer: 전혀 영향을 미치지 않았다

Question: And the “KD for DSA” value (DSA)?
Answer: 높은 친화성(KD가 피코몰 미만으로부터 나노몰 미만까지의 범위에 속함)

Question: And the “KD for CSA” value (CSA)?
Answer: 높은 친화성(KD가 피코몰 미만으로부터 나노몰 미만까지의 범위에 속함)
